Our source for the stoichiometry N values is paper doi:10.1101/2024.04.30.591959.

For this assay, the target named is T1, human propionyl-CoA carboxylase β subunit (human (endogenous in Expi 293F)), P05166.
T1 chain: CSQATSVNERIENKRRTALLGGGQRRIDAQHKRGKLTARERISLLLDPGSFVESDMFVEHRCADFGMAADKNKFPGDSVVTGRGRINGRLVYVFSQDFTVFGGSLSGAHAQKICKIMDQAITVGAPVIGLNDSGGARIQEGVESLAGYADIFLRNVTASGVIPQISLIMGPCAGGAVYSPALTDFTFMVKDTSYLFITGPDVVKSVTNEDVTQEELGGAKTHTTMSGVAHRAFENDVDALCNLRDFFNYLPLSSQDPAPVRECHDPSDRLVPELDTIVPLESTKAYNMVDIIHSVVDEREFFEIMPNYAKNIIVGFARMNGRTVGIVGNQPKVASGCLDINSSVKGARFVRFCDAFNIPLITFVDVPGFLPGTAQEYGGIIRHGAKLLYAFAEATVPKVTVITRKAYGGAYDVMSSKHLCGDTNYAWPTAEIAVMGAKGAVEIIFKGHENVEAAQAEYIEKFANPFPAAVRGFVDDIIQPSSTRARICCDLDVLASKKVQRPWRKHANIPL
In words: cryo-EM structure. Conditions: remark: other sources report otherwise.

B1: human propionyl-CoA carboxylase β subunit, P05166 29-539 (natural protein)
chain: T1 chain
On to B1, for which the stoichiometry N was determined as 6.
